In the assay the target is recombinant his6-tagged linear penta-Ub (Ub5) (UniProt P0CG48). Briefly: pull-down.
recombinant his6-tagged linear penta-Ub (Ub5), sequence (P0CG48 1-380): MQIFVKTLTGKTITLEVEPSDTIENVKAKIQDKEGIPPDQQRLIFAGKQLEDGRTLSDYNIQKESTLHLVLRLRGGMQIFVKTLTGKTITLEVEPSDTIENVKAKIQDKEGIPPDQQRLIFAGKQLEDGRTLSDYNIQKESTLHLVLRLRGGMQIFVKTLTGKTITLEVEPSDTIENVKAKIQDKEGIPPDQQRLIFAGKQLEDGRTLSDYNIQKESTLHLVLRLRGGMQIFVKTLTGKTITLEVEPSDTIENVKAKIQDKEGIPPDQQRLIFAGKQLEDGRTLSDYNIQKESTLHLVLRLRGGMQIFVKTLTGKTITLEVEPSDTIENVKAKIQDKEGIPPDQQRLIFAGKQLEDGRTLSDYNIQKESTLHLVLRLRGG

B1: recombinant purified GST-CIN exon 2 (domain or fragment)
chain: TGSLAAAVETASGRQALVVGKPSPYMFECITENFSIDPARTLMVGDRLETDILFGHRCGMTTVLTLTGVSRLEEAQAYLAAGQHDLVPHYYVESIADLTEGLED
Take B1: the binding result is “binds”.

The values are drawn from publication PMC3564530 (Molecular Biology of the Cell, 2013).
